Experimental data from patent publication US6500428B1, “Antibodies to a lymphocyte surface receptor that binds CAML and methods of use thereof” (St. Jude Children's Research Hospital, priority 1997, dated 2002).

Key:
TACI-1 [1] = target: T1, TACI-1 (Homo sapiens, UniProt O14836); assay: NF-AT-driven secreted alkaline phosphatase reporter in TAg Jurkat T cells transfected with TACI-1; assay type: cell-based; design: expressed in transfected cells; host or cells: TAg Jurkat T cells, plasmid pBJ5-TACI-1; details: antibody-cross linked TACI-1 in TAg Jurkat T cells; CsA 100 ng/ml, FK506 500 pg/ml; EGTA increasing concentrations; CAML(1-146) co-transfected
T1 sequence (O14836 1-293): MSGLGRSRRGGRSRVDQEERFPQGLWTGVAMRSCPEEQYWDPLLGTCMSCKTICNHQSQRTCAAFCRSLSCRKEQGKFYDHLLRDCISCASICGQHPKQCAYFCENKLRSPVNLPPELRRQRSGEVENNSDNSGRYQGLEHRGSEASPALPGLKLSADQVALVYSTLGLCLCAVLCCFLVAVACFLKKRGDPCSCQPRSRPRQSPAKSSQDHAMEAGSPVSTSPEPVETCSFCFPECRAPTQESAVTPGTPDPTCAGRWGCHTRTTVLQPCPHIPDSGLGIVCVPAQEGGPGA
Experimental: FIG. 4. TACI-1 is a signaling protein that functions in the activation of NF-AT-specific transcription. FIG. 4A depicts the activation of an NF-AT-driven secreted alkaline phosphatase reporter. TAg Jurkat T cells, co-transfected with the SXNFAT reporter [Bram et al., Mol. Cell. Biol., 13:4760-4769 (1993)] and the expression plasmid pBJ5 [Takebe, Y, et al., Mol. Cell. Biol., 8:466-472 (1988)] containing either TACI-1-encoding cDNA (solid triangles) or nothing (circles), were treated with 50 ng/ml PMA and the indicated amounts of ionomycin in the presence (closed symbols) and absence (open symbols) of magnetic beads coated with immunoaffinity-purified anti-TACI-1 polyclonal antibodies. […] NF-AT activation was determined in TAg Jurkat T cells co-transfected with SXNFAT and pBJ5 (−TACI-1, left) or pBJ5-TACI-1 (+TACI-1, right), and treated with the indicated combinations of PMA (50 ng/ml), ionomycin (2 μM), CsA (100 ng/ml) and FK506 (500 pg/ml) in the presence of anti-TACI-1 antibody-coated beads (‘NS’, not stimulated). […] NF-AT activation was measured in the presence of EGTA in Jurkat T cells over expressing TACI-1. […] AP-1 activation was measured in TAg Jurkat T cells, co-transfected with a mouse metallothionein AP-1-SEAP reporter [Bram et al., 1991, supra] and pBJ5 containing no insert (−TACI-1, left) or TACI-1 cDNA (+TACI-1, right). […]

[2] = tested on: PMA plus ionomycin-induced NF-AT activity; assay: PMA plus ionomycin-induced NF-AT activity in Jurkat T cells (specificity control); assay type: cell-based, human; details: co-transfection in Jurkat T cells
Experimental: To examine whether TACI-1 signaling depends on the association of TACI-1 with CAML. the interacting domain of CAML (residues 1-146) is tested to determine if it can inhibit TACI-1-induced NF-AT activation in a dominant negative fashion. […] CAML(1-146) lacks the hydrophobic transmembrane domains that are required for Ca^2+ influx activity [Holloway & Bram, Biol. Chem., 271:8549-8552 (1996)].

TACI-1 [3] = target: T1, TACI-1; assay: Co-immunoprecipitation with FLAG-tagged TACI-1 from 293T cell lysates; assay type: binding; details: anti-FLAG agarose beads
Experimental: FIGS. 5A-5D. TACI-1 interaction with CAML is critical for Ca^2+ signaling. […] Full-length cDNAs and indicated deletion mutants of TACI-1 and CAML were cloned into the yeast expression plasmids pACT and/or pAS1, and the indicated combinations were tested for interaction with the yeast 2-hybrid system (‘+’, positive interaction; ‘−’, no interaction; ‘ND’, not done). FIG. 5D depicts the co-immunoprecipitation of CAML with TACI-1. 293T cells were transfected with the indicated combinations of the expression plasmid pBJ5 containing cDNAs for CAML. TACI-1 with an N-terminal FLAG tag, the N-terminal 146 amino acids of CAML (CLX91), or no insert. After incubation for 48 hours, the cells were lysed (1% dodecyl maltoside, 20 […] HEPES pH 7.4. 150 mM NaCl, 10% glycerol, 2 mM MgSO4, 1 mM CaCl2, 1 mM PMSF) and the lysate was clarified by centrifugation. FLAG-tagged TACI-1 and associated proteins were immunoprecipitated with anti-FLAG monoclonal antibody-conjugated agarose beads and subjected to Western transfer using standard protocols. […] NF-AT activation was determined in TAg Jurkat cells transfected with pBJ5 alone, pBJ5-TACI-1 plus the control plasmid, or pBJ5-TACI-1 with an equivalent amount of CLX91, following treatment with TACI-1-specific antibodies (top). TACI-1 expression in these transfections was determined by Western blot using anti-TACI-1 polyclonal antibodies (bottom). […]

Molecule: O=C(O)CN(CCOCCOCCN(CC(=O)O)CC(=O)O)CC(=O)O [EGTA, reference compound]
- effect on TACI-1-mediated NF-AT activation (TACI-1 [1]): inhibition

B1: CAML(1-146): N-terminal 146 amino acids of CAML, expressed from plasmid; dominant negative inhibitor of TACI-1 signaling (protein, UniProt P49069 1-146, looked up, fragment)
chain: MESMAVATDGGERPGVPAGSGLSASQRRAELRRRKLLMNSEQRINRIMGFHRPGSGAEEESQTKSKQQDSDKLNSLSVPSVSKRVVLGDSVSTGTTDQQGGVAEVKGTQLGDKLDSFIKPPECSSDVNLELRQRNRGDLTADSVQR
- effect on PMA plus ionomycin-induced NF-AT activity [2]: no inhibitory effect
- co-immunoprecipitation with TACI-1 (TACI-1 [3]): co-immunoprecipitated
- effect on TACI-1-mediated NF-AT activation (TACI-1 [1]): completely eliminates
